B1: AS20 scFv (scFv, V domains shown)
VH: QVQLQQPGAELVKPGASVKMSCKASGYTFTSYNMHWVKQTPGQGLEWIGVIYPGNGDTSYNQKFKGKATLTADKSSSTAYMQLSSLTSEDSAVYYCARDYYGSSPLGYWGQGTTLTVSS
VL: QIVLTQSPAVMSASPGEKVTMTCSASSSISYMHWYQQKPGTSPKRWIYDTSKLASGVPARFSGSGSGTSYSLTISSMEAEDAATYYCHQRSSYPTFGGGTKLEIK
B2: AS20 hIgG1 LALA-PG (antibody)
heavy: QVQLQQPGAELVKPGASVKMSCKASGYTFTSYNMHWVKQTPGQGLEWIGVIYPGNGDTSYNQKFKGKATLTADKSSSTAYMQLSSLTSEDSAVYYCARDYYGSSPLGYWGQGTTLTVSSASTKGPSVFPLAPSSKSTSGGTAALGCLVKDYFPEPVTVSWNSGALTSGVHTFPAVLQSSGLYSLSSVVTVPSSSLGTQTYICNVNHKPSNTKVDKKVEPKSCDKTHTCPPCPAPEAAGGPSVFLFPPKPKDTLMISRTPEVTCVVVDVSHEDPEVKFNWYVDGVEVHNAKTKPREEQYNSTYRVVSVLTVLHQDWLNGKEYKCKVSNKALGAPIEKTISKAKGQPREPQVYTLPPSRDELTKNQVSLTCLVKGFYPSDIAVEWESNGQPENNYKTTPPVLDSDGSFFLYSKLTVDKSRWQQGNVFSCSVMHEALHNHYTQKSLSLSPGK
light: QIVLTQSPAVMSASPGEKVTMTCSASSSISYMHWYQQKPGTSPKRWIYDTSKLASGVPARFSGSGSGTSYSLTISSMEAEDAATYYCHQRSSYPTFGGGTKLEIKRTVAAPSVFIFPPSDEQLKSGTASVVCLLNNFYPREAKVQWKVDNALQSGNSQESVTEQDSKDSTYSLSSTLTLSKADYEKHKVYACEVTHQGLSSPVTKSFNRGEC
notes: also called AS20 IgG1 LALA-PG
B3: Human BSSL (bile salt-stimulated lipase), native (enzyme)
chain: AKLGAVYTEGGFVEGVNKKLGLLGDSVDIFKGIPFAAPTKALENPQPHPGWQGTLKAKNFKKRCLQATITQDSTYGDEDCLYLNIWVPQGRKQVSRDLPVMIWIYGGAFLMGSGHGANFLNNYLYDGEEIATRGNVIVVTFNYRVGPLGFLSTGDANLPGNYGLRDQHMAIAWVKRNIAAFGGDPNNITLFGESAGGASVSLQTLSPYNKGLIRRAISQSGVALSPWVIQKNPLFWAKKVAEKVGCPVGDAARMAQCLKVTDPRALTLAYKVPLAGLEYPMLHYVGFVPVIDGDFIPADPINLYANAADIDYIAGTNNMDGHIFASIDMPAINKGNKKVTEEDFYKLVSEFTITKGLRGAKTTFDVYTESWAQDPSQENKKKTVVDFETDVLFLVPTEIALAQHRANAKSAKTYAYLFSHPSRMPVYPKWVGADHADDIQYVFGKPFATPTGYRPQDRTVSKAMIAYWTNFAKTGDPNMGDSAVPTHWEPYTTENSGYLEITKKMGSSSMKRSLRTNFLRYWTLTYLALPTVTDQEATPVPPTGDSEATPVPPTGDSETAPVPPTGDSGAPPVPPTGDSGAPPVPPTGDSGAPPVPPTGDSGAPPVPPTGDSGAPPVPPTGDSGAPPVPPTGDSGAPPVPPTGDAGPPPVPPTGDSGAPPVPPTGDSGAPPVTPTGDSETAPVPPTGDSGAPPVPPTGDSEAAPVPPTDDSKEAQMPAVIRF
notes: Native full-length protein purified from human milk (Astra Hässle AB); also called hBSSL; non-biotinylated human BSSL
B4: S-SL048-106 hIgG4 S228P (antibody, V domains shown)
VH: QVQLVQSGAEVKKPGASVKVSCKASGYTFTSYNMHWVRQAPGQGLEWIGVIYPGDGSTSYNQKFQGRVTMTRDTSTSTVYMELSSLRSEDTAVYYCARDYYGSSPLGYWGQGTLVTVSS
VL: DIQMTQSPSSLSASVGDRVTITCSASSSISYMNWYQQKPGKAPKLLIYATSKLPSGVPSRFSGSGSGTDFTLTISSLQPEDFATYYCHQRSSTPTFGQGTKLEIKR
notes: also called mAb106

Columns and labels:
[1] = biological target: B3; test: SPR single cycle kinetics, scFv captured by anti-FLAG M2
[2] = biological target: T1, Mouse BSSL, recombinant (mouse, UniProt Q64285 21-599); test: HTRF competition
T1 construct: Bought (R&D Systems, Cat. no 5658-CE); also called mBSSL; murine BSSL
T1 sequence: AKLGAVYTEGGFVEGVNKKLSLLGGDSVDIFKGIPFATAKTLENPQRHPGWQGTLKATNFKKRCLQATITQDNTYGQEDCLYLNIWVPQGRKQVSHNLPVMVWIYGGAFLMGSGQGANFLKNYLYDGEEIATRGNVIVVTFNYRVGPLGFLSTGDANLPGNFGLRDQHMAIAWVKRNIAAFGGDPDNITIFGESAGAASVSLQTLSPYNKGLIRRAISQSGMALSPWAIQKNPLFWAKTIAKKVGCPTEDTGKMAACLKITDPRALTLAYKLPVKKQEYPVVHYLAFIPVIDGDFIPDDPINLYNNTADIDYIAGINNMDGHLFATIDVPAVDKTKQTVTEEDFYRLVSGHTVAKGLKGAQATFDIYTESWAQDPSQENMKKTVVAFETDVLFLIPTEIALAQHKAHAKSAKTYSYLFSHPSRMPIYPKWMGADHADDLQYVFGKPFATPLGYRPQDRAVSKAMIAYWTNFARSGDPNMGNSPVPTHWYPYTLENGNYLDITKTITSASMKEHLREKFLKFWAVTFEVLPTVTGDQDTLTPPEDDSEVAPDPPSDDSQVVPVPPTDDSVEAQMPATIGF

[3] = biological target: B3; test: SPR kinetic screen, single concentration (estimated)
[4] = biological target: B3; test: ELISA, hBSSL directly coated at 1 µg/ml, detection HRP anti-FLAG M2, A450
[5] = biological target: T1, Mouse BSSL, recombinant; test: SPR steady state, antibody immobilised
Procedure: (§1) Single cycle kinetics was used to measure the affinity of the antibodies. AS20 hIgG1 LALA-PG and anti-NP hIgG1 LALA-PG were immobilized on a CM5 S sensor chip by primary amine coupling using NHS-EDC chemistry. Five different concentrations of antigen (1:3 dilutions starting from 50 nM for hBSSL and 1:2 dilutions starting from 800 nM for mBSSL) were injected over the surface. The sensor chip surface was regenerated with 10 mM glycine-HCl pH 2.1. Obtained single cycle kinetic data was fitted to a Langmuir 1:1 binding model and kinetic parameters were retrieved using the software BlAevaluation. For mBSSL, a steady state analysis was also performed by plotting the response level at equilibrium against each concentration, and KD values were retrieved by the BlAevalution software.

[6] = biological target: B3; test: SPR single cycle kinetics, antibody immobilised
Procedure: as §1
A single cycle kinetic SPR approach was used to determine the affinity of the IgG.

[7] = biological target: B1; test: HTRF competition against 5 nM b-hBSSL for 2.5 nM AS20 scFv
Procedure: In order to study the interaction between AS20 scFv and native mouse BSSL, a competition assay was developed. Detection of binding was enabled through donor molecule terbium-conjugated α-FLAG antibody (Cisbio #611FG2TL), which interacts with the C-terminal located FLAG-tag of the scFv, and acceptor molecule streptavidin-conjugated XL665 (Cisbio #610SAXL), which interacts with the biotin-moieties on human BSSL.
2.5 nM of AS20 scFv was pre-incubated for 2 hours with the mouse or human orthologue of BSSL, after which 5 nM b-hBSSL and the FRET donor and acceptor molecules were added. The mixture was finally incubated at room temperature for 16 hours and the binding signal (665 nm) and background/noise signal (615 nm) was measured using EnVision (PerkinElmer). The experimental output, Delta R, was calculated for each point using four replicates and two blanks.

[8] = biological target: B3; test: SPR single cycle kinetics, hIgG4 S228P captured by anti-Fab
Outline: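 hIgG4 S228P captured on an immobilized anti-Fab surface; five BSSL concentrations injected, 1:5 dilutions from 50 nM (human) or from 500 nM (mouse). Human BSSL: single-cycle kinetics, 1:1 fit. Mouse BSSL: KD from steady-state equilibrium response versus concentration. Regeneration with 10 mM glycine-HCl pH 2.1.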

[9] = biological target: B3; test: SPR single cycle kinetics, captured by anti-Fab, Absolute Antibody batch
Procedure: Kinetic parameters of the hIgG4 S228P clones were determined by SPR using BIACORE® T200 (GE Healthcare). An anti-Fab antibody (GE #28958325) was immobilized on a CM5 S sensor chip by primary amine coupling using NHS-EDC chemistry. The hIgG4 antibodies were captured by the anti-Fab antibody, and subsequently, five different concentrations of hBSSL (1:5 dilutions, 0.08-50 nM) or mBSSL (1:2 dilutions, 50-800 nM) were injected over the surface. The sensor chip surface was regenerated with 10 mM glycine-HCl pH 2.1. For binding to human BSSL, single cycle kinetic data was fitted to a 1:1 binding model and kinetic parameters were retrieved using software BlAevaluation. For mouse BSSL, a steady state analysis was performed by plotting the response level at equilibrium against each concentration, and KD values were retrieved by the BlAevalution software.

[10] = biological target: T2, Biotinylated human BSSL (human, UniProt P19835 21-753, Biotinylated on glycosacarides, 30-40 biotin/BSSL); test: flow cytometry displacement assay; 3.0 ug antibody, 1 ug b-hBSSL
T2 construct: hBSSL biotinylated in house; also called b-hBSSL; human BSSL-biotin
T2 sequence: B3 chain
Outline: (§2)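 Antibody (0.5–3.0 μg per reaction) preincubated with 1 μg biotinylated human BSSL in PBS pH 7.4, 30 min at 4 °C, then with human buffy coat 30 min at 4 °C. After erythrocyte lysis/fixation, bound BSSL on CD14+ monocytes detected by labelled streptavidin via flow cytometry.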

[11] = biological target: B3; test: cell-based or functional assay
[12] = biological target: T2, Biotinylated human BSSL; test: flow cytometry displacement assay; 1.5 ug antibody, 1 ug b-hBSSL
Outline: as §2

[13] = biological target: T1, Mouse BSSL, recombinant; test: SPR steady state, hIgG4 S228P captured by anti-Fab; in-house production batch (Example 9); Table 12 marks this value # as unreliable
Procedure: Kinetic parameters of the hIgG4 S228P clones were determined by SPR using BIACORE® T200 (GE Healthcare). Single cycle kinetics was used to measure the affinity of the purified hIgG4 molecules to human and mouse BSSL. An anti-Fab antibody (GE Healthcare, #28958325) was immobilized on a CM5 S sensor chip by primary amine coupling using NHS-EDC chemistry. hIgG4 was captured by the anti-Fab antibody, and subsequently, five different concentrations of hBSSL (1:5 dilutions starting from 50 nM) or mBSSL (1:5 dilutions starting from 500 nM) were injected over the surface. The sensor chip surface was regenerated with 10 mM glycine-HCl pH 2.1. For binding to human BSSL, single cycle kinetic data was fitted to a 1:1 binding model and kinetic parameters were retrieved using software BlAevaluation. For mouse BSSL, a steady state analysis was performed by plotting the response level at equilibrium against each concentration, and KD values were retrieved by the BlAevalution software.

[14] = biological target: B3; test: cell-based or functional assay; remark: listed apart in the source

B1
Kd [1]: 0.6 nM | koff [1]: 0.00012 s⁻¹ | kon [1]: 190000 M⁻¹ s⁻¹ | fold lower affinity than for human BSSL [2]: ~100 fold | Kd [3]: 2 nM | EC50 (read off the curve) [4]: ~0.02 µg/mL

B2
Kd [5]: 361 nM | Kd [6]: 0.91 nM

B3
IC50 [7]: ~2 nM

B4
Kd [8]: 1.2 nM | Kd [9]: 1.2 nM | percentage reduction of b-hBSSL binding to CD14+ monocytes [10]: 61% | BSSL hydrolysis of cholesterol esters, relative value (no antibody = 100%); 0.19 ug antibody [11]: 94.8% | BSSL hydrolysis of cholesterol esters, relative value (no antibody = 100%); 0.38 ug antibody [11]: 97.2% | BSSL hydrolysis of cholesterol esters, relative value (no antibody = 100%); 0.75 ug antibody [11]: 93.9% | BSSL hydrolysis of cholesterol esters, relative value (no antibody = 100%); 1.5 ug antibody [11]: 95.3% | BSSL hydrolysis of cholesterol esters, relative value (no antibody = 100%); 3.0 ug antibody [11]: 99% | BSSL hydrolysis of cholesterol esters, relative value (no antibody = 100%); 6.0 ug antibody [11]: 90.5% | percentage reduction of b-hBSSL binding to CD14+ monocytes [12]: 52% | Kd [13]: 111 nM | BSSL hydrolysis of triglycerides, relative value (no antibody = 100%); 0.19 ug antibody [14]: 109% | BSSL hydrolysis of triglycerides, relative value (no antibody = 100%); 0.38 ug antibody [14]: 123% | BSSL hydrolysis of triglycerides, relative value (no antibody = 100%); 0.75 ug antibody [14]: 129% | BSSL hydrolysis of triglycerides, relative value (no antibody = 100%); 1.5 ug antibody [14]: 120% | BSSL hydrolysis of triglycerides, relative value (no antibody = 100%); 3.0 ug antibody [14]: 99.2% | BSSL hydrolysis of triglycerides, relative value (no antibody = 100%); 6.0 ug antibody [14]: 104%

Source: patent publication US20220267469A1 (LIPUM, published 2022)
